In article PMC8926328:

Target: HBsAg-SpyCatcher VLPs (hepatitis B virus)
Experiment: SDS-PAGE of the covalent conjugate

RBD-SpyTag (from UniProt P0DTC2) (domain or fragment)
fraction unconjugated: < 20%
